The text below walks through data of patent US20210002376A1 (UNIVERSIT T STUTTGART, published 2021).

In experiment [1] the target is T1, HER3-His (UniProt P21860 21-643).
T1 construct: range 21-643; also called His-tagged HER3; second antigen
Put plainly: simultaneous binding ELISA: coated EGFR-Fc, Db titrated, HER3-His 300 nM added, anti-His-HRP.

Experiment [2] has as its target T1, HER3-His. The experiment is described as above. The source holds these as a separate data set.
For the next experiment, the target named is T2, EGFR-His (UniProt P00533 25-645).
T2 construct: range 25-645; also called His-tagged EGFR
Put plainly: ELISA, coated His-tagged EGFR ECD, anti-human Fc-HRP. A general note: An ELISA detects its analyte on a solid surface through an enzyme-linked reagent.

Experiment [3] concerns the target T1, HER3-His. The experiment can be described thus: ELISA, coated His-tagged HER3 ECD, anti-human Fc-HRP.
Experiment [4] addresses T3, EGFR-Fc fusion protein (UniProt P00533 25-645).
T3 construct: range 25-645; Coated antigen in ELISA; not shown: Fc part of the fusion, not described
Put plainly: ELISA, coated EGFR-Fc, anti-human Fab-HRP.

Experiment [5] concerns the target T1, HER3-His. The experiment can be described thus: simultaneous binding ELISA: coated EGFR-Fc, Db titrated, HER3-His 300 nM added, anti-His-HRP. This is another data set of the same source.
Experiment [6] concerns the target T4, HER3 (on tumor cells) (UniProt P21860 20-1342, limits assumed).
T4 construct: whole, on cells; also called HER3 on MCF-7, SKBR-3 (SKBR3) and FaDu cells
The experiment can be described thus: flow cytometry on HER3-positive MCF-7 cells. A general note: A flow cytometer gives signals particle by particle.

Experiment [7] has as its target T5, HER3-Fc fusion protein (UniProt P21860 21-643).
T5 construct: range 21-643; Coated antigen in ELISA; not shown: Fc part of the fusion, not described
The experiment can be described thus: ELISA, coated HER3-Fc, anti-human Fab-HRP.

Experiment [8] deals with T4, HER3 (on tumor cells). The experiment can be described thus: flow cytometry on HER3-positive MCF-7 cells. This is another data set of the same source.
In experiment [9] the target is T5, HER3-Fc fusion protein. Put plainly: ELISA, coated HER3-Fc, anti-human Fab-HRP. This is another data set of the same source.
In experiment [10] the target is T3, EGFR-Fc fusion protein. The experiment can be described thus: ELISA, coated EGFR-Fc, anti-human Fab-HRP. The source holds these as a separate data set.
The target of experiment [11] is T1, HER3-His. Put plainly: simultaneous binding ELISA: coated EGFR-Fc, Db titrated, HER3-His 300 nM added, anti-His-HRP. The source holds these as a separate data set.
Experiment [12] deals with T4, HER3 (on tumor cells). Put plainly: flow cytometry on MCF-7 cells.
Experiment [13] deals with T4, HER3 (on tumor cells). Put plainly: flow cytometry on FaDu cells.
For experiment [14], the target named is T4, HER3 (on tumor cells). Put plainly: flow cytometry on SKBR-3 cells.

Read-outs that look alike come from different tables or passages of the source.

B1: Db3-43xhu225-MHD2-Fc (bispecific antibody)
heavy: EVQLVESGGGLVQPGGSLRLSCAASGFSLTNYGVHWVRQAPGKGLEWLGVIWSGGNTDYNTPFTSRFTISRDNSKNTLYLQMNSLRAEDTAVYYCARALTYYDYEFAYWGQGTTVTVSSGGGGSQAGLTQPPAVSVAPGQTASITCGRDNIGSRSVHWYQQKPGQAPVLVVYDDSDRPAGIPERFSGSNYENTATLTISRVEAGDEADYYCQVWGITSDHVVFGGGTKLTVLASAELPPKVSVFVPPRDGFFGNPRKSKLICQATGFSPRQIQVSWLREGKQVGSGVTTDQVQAEAKESGPTTYKVTSTLTIKESDWLGQSMFTCRVDHRGLTFQQNASSMCVPDDKTHTCPPCPAPPVAGPSVFLFPPKPKDTLMISRTPEVTCVVVDVSHEDPEVKFNWYVDGVEVHNAKTKPREEQYNSTYRVVSVLTVLHQDWLNGKEYKCKVSNKGLPSSIEKTISKAKGQPREPQVYTLPPSRDELTKNQVSLTCLVKGFYPSDIAVEWESNGQPENNYKTTPPVLDSDGSFFLYSKLTVDKSRWQQGNVFSCSVMHEALHNHYTQKSLSLSPGK
light: QVQLQQSGPGLVKPSQTLSLTCAISGDSVSSNRAAWNWIRQSPSRGLEWLGRTYYRSKWYNDYAQSLKSRITINPDTPKNQFSLQLNSVTPEDTAVYYCARDGQLGLDALDIWGQGTMVTVSSGGGGSDIQLTQSPSFLSASVGDRVTITCRASQSIGTNIHWYQQKPGKAPKLLIKYASESISGVPSRFSGSGSGTEFTLTISSLQPEDFATYYCQQNNNWPTTFGAGTKLEIKRTAELPPKVSVFVPPRDGFFGNPRKSKLICQATGFSPRQIQVSWLREGKQVGSGVTTDQVQAEAKESGPTTYKVTSTLTIKESDWLGQSMFTCRVDHRGLTFQQNASSMCVPD
notes: homodimeric Fc part
Broadly, the EC50 is the concentration at which the effect is half-maximal. A low value points to a more potent agent. Regarding B1, the EC50 was found to be 1.8 nM with HER3-His [1], 1.9 nM with HER3-His [2], 0.23 nM in the experiment with EGFR-His and 0.34 nM in the experiment with HER3-His [3].

B2: Db3M6xhu225-Ig (bispecific antibody, human IgG1, kappa)
heavy: EVQLVESGGGLVQPGGSLRLSCAASGFSLTNYGVHWVRQAPGKGLEWLGVIWSGGNTDYNTPFTSRFTISRDNSKNTLYLQMNSLRAEDTAVYYCARALTYYDYEFAYWGQGTTVTVSSGGGGSQSALTQPASVSGSPGQSITISCTGTSSDVGSYNVVSWYQQHPGKAPKLIIYEVSQRPSGVSNRFSGSKSGNTASLTISGLQTEDEADYYCSSYAGSSIFVIFGGGTKVTVLASTKGPSVFPLAPSSKSTSGGTAALGCLVKDYFPEPVTVSWNSGALTSGVHTFPAVLQSSGLYSLSSVVTVPSSSLGTQTYICNVNHKPSNTKVDKKVEPKSCDKTHTCPPCPAPPVAGPSVFLFPPKPKDTLMISRTPEVTCVVVDVSHEDPEVKFNWYVDGVEVHNAKTKPREEQYNSTYRVVSVLTVLHQDWLNGKEYKCKVSNKGLPSSIEKTISKAKGQPREPQVYTLPPSRDELTKNQVSLTCLVKGFYPSDIAVEWESNGQPENNYKTTPPVLDSDGSFFLYSKLTVDKSRWQQGNVFSCSVMHEALHNHYTQKSLSLSPGK
light: EVQLLESGGGLVQPGGSLRLSCAASGFTFSHYVMAWVRQAPGKGLEWVSSISSSGGWTLYADSVKGRFTISRDNSKNTLYLQMNSLRAEDTAVYYCTRGLKMATIFDYWGQGTLVTVSSGGGGSDIQLTQSPSFLSASVGDRVTITCRASQSIGTNIHWYQQKPGKAPKLLIKYASESISGVPSRFSGSGSGTEFTLTISSLQPEDFATYYCQQNNNWPTTFGAGTKLEIKRTVAAPSVFIFPPSDEQLKSGTASVVCLLNNFYPREAKVQWKVDNALQSGNSQESVTEQDSKDSTYSLSSTLTLSKADYEKHKVYACEVTHQGLSSPVTKSFNRGEC
notes: also called bispecific, tetravalent Diabody-Ig targeting EGFR (hu225) and HER3 (3M6); DbEGFRxHER3-Ig
B2: the EC50 was found to be 0.48 nM with EGFR-Fc fusion protein [4], 1.3 nM with HER3-His [5], 1.54 nM with HER3 (on tumor cells) [6] and 1.4 nM with HER3-Fc fusion protein [7].

B3: Db3-43xhu225-Ig (bispecific antibody, human IgG1, kappa)
heavy: EVQLVESGGGLVQPGGSLRLSCAASGFSLTNYGVHWVRQAPGKGLEWLGVIWSGGNTDYNTPFTSRFTISRDNSKNTLYLQMNSLRAEDTAVYYCARALTYYDYEFAYWGQGTTVTVSSGGGGSQAGLTQPPAVSVAPGQTASITCGRDNIGSRSVHWYQQKPGQAPVLVVYDDSDRPAGIPERFSGSNYENTATLTISRVEAGDEADYYCQVWGITSDHVVFGGGTKLTVLASTKGPSVFPLAPSSKSTSGGTAALGCLVKDYFPEPVTVSWNSGALTSGVHTFPAVLQSSGLYSLSSVVTVPSSSLGTQTYICNVNHKPSNTKVDKKVEPKSCDKTHTCPPCPAPPVAGPSVFLFPPKPKDTLMISRTPEVTCVVVDVSHEDPEVKFNWYVDGVEVHNAKTKPREEQYNSTYRVVSVLTVLHQDWLNGKEYKCKVSNKGLPSSIEKTISKAKGQPREPQVYTLPPSRDELTKNQVSLTCLVKGFYPSDIAVEWESNGQPENNYKTTPPVLDSDGSFFLYSKLTVDKSRWQQGNVFSCSVMHEALHNHYTQKSLSLSPGK
light: QVQLQQSGPGLVKPSQTLSLTCAISGDSVSSNRAAWNWIRQSPSRGLEWLGRTYYRSKWYNDYAQSLKSRITINPDTPKNQFSLQLNSVTPEDTAVYYCARDGQLGLDALDIWGQGTMVTVSSGGGGSDIQLTQSPSFLSASVGDRVTITCRASQSIGTNIHWYQQKPGKAPKLLIKYASESISGVPSRFSGSGSGTEFTLTISSLQPEDFATYYCQQNNNWPTTFGAGTKLEIKRTVAAPSVFIFPPSDEQLKSGTASVVCLLNNFYPREAKVQWKVDNALQSGNSQESVTEQDSKDSTYSLSSTLTLSKADYEKHKVYACEVTHQGLSSPVTKSFNRGEC
notes: also called bispecific, tetravalent Diabody-Ig targeting EGFR (hu225) and HER3 (3-43) using CH1 and CL; DbEGFRxHER3-Ig
B3: the EC50 was 0.054 nM with HER3 (on tumor cells) [8], 0.34 nM in the experiment with HER3-Fc fusion protein [9], 0.43 nM with EGFR-Fc fusion protein [10] and 0.85 nM with HER3-His [11].

B4: 3-43-IgG (antibody, V domains shown)
VH: QVQLQQSGPGLVKPSQTLSLTCAISGDSVSSNRAAWNWIRQSPSRGLEWLGRTYYRSKWYNDYAQSLKSRITINPDTPKNQFSLQLNSVTPEDTAVYYCARDGQLGLDALDIWGQGTMVTVSS
VL: QAGLTQPPAVSVAPGQTASITCGRDNIGSRSVHWYQQKPGQAPVLVVYDDSDRPAGIPERFSGSNYENTATLTISRVEAGDEADYYCQVWGITSDHVVFGGGTKLTVL
With B4, the EC50 was 0.021 nM with HER3 (on tumor cells) [12], 0.003 nM in the experiment with HER3 (on tumor cells) [13] and 0.022 nM with HER3 (on tumor cells) [14].
